Experimental data from patent publication US20260008815A1, “CYCLIC PEPTIDE OR SALT THEREOF, AND USES THEREOF” (FUJIFILM Corporation, priority 2023, published 2026).
Bridge positions count the residues as written; N and C are the ends. Ends that are not written are not given here. COCH2 = acetyl group that carries the bridge

target: T1, Recombinant Human FGFR2 alpha (IIIc) Fc Chimera Protein (Homo sapiens, UniProt P21802); test: ELISA binding affinity of enzymatically synthesized peptide to FGFR; conditions: ELISA luminescence signal at 10 nmol/L peptide, SEQ ID NO: 47 at 10 nmol/L standardized to 1; enzyme synthesis product
T1 construct: Fc (chimera); purchased R&D systems 712-FR-050
T1 sequence (P21802 with tags, fused parts or gaps limits assumed): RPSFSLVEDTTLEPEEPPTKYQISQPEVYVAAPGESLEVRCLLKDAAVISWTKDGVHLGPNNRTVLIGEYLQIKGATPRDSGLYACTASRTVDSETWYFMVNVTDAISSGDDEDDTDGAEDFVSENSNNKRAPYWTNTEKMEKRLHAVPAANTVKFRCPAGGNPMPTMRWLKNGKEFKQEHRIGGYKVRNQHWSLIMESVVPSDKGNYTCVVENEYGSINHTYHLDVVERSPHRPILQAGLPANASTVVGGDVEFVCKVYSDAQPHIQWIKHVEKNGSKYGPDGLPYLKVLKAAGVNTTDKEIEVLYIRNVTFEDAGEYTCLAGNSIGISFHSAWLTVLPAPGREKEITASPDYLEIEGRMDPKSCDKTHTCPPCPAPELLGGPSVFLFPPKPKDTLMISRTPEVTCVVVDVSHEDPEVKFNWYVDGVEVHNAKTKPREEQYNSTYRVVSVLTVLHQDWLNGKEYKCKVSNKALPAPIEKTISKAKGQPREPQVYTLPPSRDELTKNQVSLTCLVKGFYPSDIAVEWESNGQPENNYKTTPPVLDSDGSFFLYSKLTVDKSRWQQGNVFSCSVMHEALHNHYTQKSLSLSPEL
Experimental: The binding affinity of the peptide to FGFR was evaluated using an ELISA method.
The binding affinity of the enzymatically synthesized peptide to FGFR was measured by evaluating the amount of the peptide bound to FGFR by ELISA.
First, 5 ng of Recombinant Human FGFR2 alpha (IIIc) Fc Chimera Protein (R&D systems, 712-FR-050) was immobilized in each well of a 96-well plate, and blocked with Pierce Protein-Free (PBS) Blocking Buffer (Thermo, 37572), and a peptide diluted with Can Get Signal Immunoreaction Enhancer Solution I (TOYOBO, NKB-101) was then added and reacted at room temperature for 3 hours. After washing with 0.05% Tween 20-containing phosphate buffered saline (PBS), an anti-Myc antibody (Cell Signaling, 14038S) diluted with Can Get Signal Immunoreaction Enhancer Solution II (TOYOBO, NKB-101) was added and reacted at room temperature for 2 hours. After washing with 0.05% Tween 20-containing PBS, SuperSignal ELISA Femto Substrate (Thermo, 37075) was added, and the luminescence amount was measured. The dose-response relationship was calculated from using the difference between the luminescence amount in the well in which FGFR was immobilized and the luminescence amount in the well in which FGFR was not immobilized, and the concentration of the peptide at the time of reaction, and the binding affinity to FGFR was evaluated according to the following evaluation criteria. The evaluation result preferably satisfies the evaluation criteria A, B, or C.
In a case where a value of a luminescence signal emitted by the cyclic peptide set forth in SEQ ID NO: 47 at a reaction concentration of 10 nmol/L is standardized to 1, evaluation criteria of the luminescence signal value emitted by the cyclic peptide at a reaction concentration of 10 nmol/L is as follows. • A: 0.7 or more • B: 0.5 or more and less than 0.7 • C: 0.1 or more and less than 0.5 • D: less than 0.1.

Row | Substance | Evaluation result of binding affinity to FGFR
1 | 89 (QCPQNFINPVQWRYYQHYK(COCH2)N; thioether 2-19 (inferred)) [compound 89] | B (0.5 or more and less than 0.7)
2 | 90 (QCPQNFINPVQWRYRQHYK(COCH2)N; thioether 2-19 (inferred)) [compound 90] | C (0.1 or more and less than 0.5)
3 | 91 (QCPQNFINPVQWRYFQHVK(COCH2)N; thioether 2-19 (inferred)) [compound 91] | C (0.1 or more and less than 0.5)
4 | 92 (QCPQNFINPVQWRYFQHFK(COCH2)N; thioether 2-19 (inferred)) [compound 92] | A (0.7 or more)
5 | 93 (QCPQNFINPVQWRYFQHWK(COCH2)N; thioether 2-19 (inferred)) [compound 93] | A (0.7 or more)
6 | 94 (QCPQNFINPVQWRYFQHSK(COCH2)N; thioether 2-19 (inferred)) [compound 94] | C (0.1 or more and less than 0.5)
7 | 95 (QCPQGFINPVQWRYFQHYK(COCH2)N; thioether 2-19) [compound 95] | C (0.1 or more and less than 0.5)
8 | 96 (QCPQYFINPVQWRYFQHYK(COCH2)N; thioether 2-19) [compound 96] | C (0.1 or more and less than 0.5)
9 | 97 (QCPQSFINPVQWRYFQHYK(COCH2)N; thioether 2-19) [compound 97] | C (0.1 or more and less than 0.5)
10 | 98 (QCPQTFINPVQWRYFQHYK(COCH2)N; thioether 2-19) [compound 98] | C (0.1 or more and less than 0.5)
11 | 99 (QCPQEFINPVQWRYFQHYK(COCH2)N; thioether 2-19) [compound 99] | C (0.1 or more and less than 0.5)
12 | 100 (QCPQHFINPVQWRYFQHYK(COCH2)N; thioether 2-19 (inferred)) [compound 100] | C (0.1 or more and less than 0.5)
13 | 101 (QCPQNFINPVQIRYFQHYK(COCH2)N; thioether 2-19 (inferred)) [compound 101] | C (0.1 or more and less than 0.5)
14 | 102 (QCPQNFINPVQVRYFQHYK(COCH2)N; thioether 2-19 (inferred)) [compound 102] | C (0.1 or more and less than 0.5)
15 | 103 (QCPQNFINPVQFRYFQHYK(COCH2)N; thioether 2-19 (inferred)) [compound 103] | B (0.5 or more and less than 0.7)
16 | 104 (QCPQNFINPVQYRYFQHYK(COCH2)N; thioether 2-19 (inferred)) [compound 104] | B (0.5 or more and less than 0.7)
17 | 105 (QCPQNFINPVQSRYFQHYK(COCH2)N; thioether 2-19 (inferred)) [compound 105] | C (0.1 or more and less than 0.5)
18 | 106 (QCPQNFINPVQHRYFQHYK(COCH2)N; thioether 2-19 (inferred)) [compound 106] | A (0.7 or more)
19 | 107 (YCTDNYIDDIQFWYLFLYK(COCH2)Q; thioether 2-19 (inferred)) [compound 107] | B (0.5 or more and less than 0.7)
20 | 108 (LCRNYINPQQWRYFALYK(COCH2)Y; thioether 2-18 (inferred)) [compound 108] | A (0.7 or more)
21 | 109 (DCFINELQYFYIQQYK(COCH2)K; thioether 2-16 (inferred)) [compound 109] | B (0.5 or more and less than 0.7)
22 | 110 (QCQTDHQQQLYFIYQYLQK(COCH2)I; thioether 2-19 (inferred)) [compound 110] | C (0.1 or more and less than 0.5)
23 | 111 (QCDQEFYLALYAWTLRSYK(COCH2)L; thioether 2-19 (inferred)) [compound 111] | C (0.1 or more and less than 0.5)
